From paper PMC2791401 come the findings set out here.

The experiment addresses p190RhoGAP-A (endogenous) (human (endogenous in HeLa)) (UniProt Q9NRY4). The experiment in a line: co-IP.
Sequence of UniProt Q9NRY4 (Q9NRY4 whole entry): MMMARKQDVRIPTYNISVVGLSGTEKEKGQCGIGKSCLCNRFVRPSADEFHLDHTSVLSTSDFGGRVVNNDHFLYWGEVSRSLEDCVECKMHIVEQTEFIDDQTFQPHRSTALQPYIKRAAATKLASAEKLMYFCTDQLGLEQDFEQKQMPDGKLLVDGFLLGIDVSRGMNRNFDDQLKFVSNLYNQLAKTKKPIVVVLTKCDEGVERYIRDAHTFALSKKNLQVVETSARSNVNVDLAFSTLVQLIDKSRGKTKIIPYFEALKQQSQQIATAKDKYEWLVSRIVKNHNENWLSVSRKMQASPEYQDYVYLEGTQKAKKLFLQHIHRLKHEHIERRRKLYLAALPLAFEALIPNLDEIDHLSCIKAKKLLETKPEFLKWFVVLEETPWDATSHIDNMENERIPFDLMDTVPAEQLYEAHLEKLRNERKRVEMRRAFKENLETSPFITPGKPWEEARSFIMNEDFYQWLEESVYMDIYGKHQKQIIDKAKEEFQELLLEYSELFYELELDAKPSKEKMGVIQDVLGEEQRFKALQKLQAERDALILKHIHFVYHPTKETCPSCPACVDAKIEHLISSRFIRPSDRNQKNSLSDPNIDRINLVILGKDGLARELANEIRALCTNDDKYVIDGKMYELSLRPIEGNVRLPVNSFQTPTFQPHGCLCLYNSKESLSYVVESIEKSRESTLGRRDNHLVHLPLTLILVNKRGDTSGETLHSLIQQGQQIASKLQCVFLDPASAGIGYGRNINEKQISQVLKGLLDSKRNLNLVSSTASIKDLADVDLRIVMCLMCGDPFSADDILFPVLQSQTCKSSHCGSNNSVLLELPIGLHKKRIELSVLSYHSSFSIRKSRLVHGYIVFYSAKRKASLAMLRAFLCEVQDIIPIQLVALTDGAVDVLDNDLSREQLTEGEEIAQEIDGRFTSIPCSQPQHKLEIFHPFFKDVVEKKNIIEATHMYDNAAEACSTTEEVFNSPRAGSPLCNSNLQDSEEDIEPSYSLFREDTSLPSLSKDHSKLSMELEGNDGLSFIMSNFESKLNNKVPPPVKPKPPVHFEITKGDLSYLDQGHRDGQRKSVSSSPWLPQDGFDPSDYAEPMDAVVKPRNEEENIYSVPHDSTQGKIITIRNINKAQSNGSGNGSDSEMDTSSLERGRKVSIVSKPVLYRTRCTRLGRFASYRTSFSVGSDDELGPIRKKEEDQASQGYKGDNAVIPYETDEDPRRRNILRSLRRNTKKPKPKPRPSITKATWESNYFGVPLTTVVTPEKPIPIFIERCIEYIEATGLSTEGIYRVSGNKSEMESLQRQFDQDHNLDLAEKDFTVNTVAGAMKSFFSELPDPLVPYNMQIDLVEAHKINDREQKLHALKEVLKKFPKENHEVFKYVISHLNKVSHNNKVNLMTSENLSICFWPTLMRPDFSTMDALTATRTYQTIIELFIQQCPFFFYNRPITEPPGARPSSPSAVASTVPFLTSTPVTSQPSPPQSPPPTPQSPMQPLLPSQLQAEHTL

With “FLAG-tagged wild type ECT2 (pCEV29F3-ECT2) (natural protein)”, the abundance of the complex, percent of total p190 or ECT2 fell in the range of 2 to 4%.
“FLAG-tagged ECT2N (amino acids 1-334) (domain or fragment)” returned an IP/WL (amount co-immunoprecipitated by anti-p190 vs. total protein expressed) of 0.2.
Turning to “FLAG-tagged ECT2C (amino acids 414-883) (domain or fragment)”, the IP/Total (amount co-immunoprecipitated by anti-p190 vs. total protein expressed) is 1.5.
